Results reported in patent publication US20180154038A1.
Where no end group is shown, it is not given here.

Target: human fibrinogen (human) (UniProt P02671)
Experiment: cell-based or functional assay

Chain of human fibrinogen (human) (P02671 20-629 limits assumed, chain 1 of 3): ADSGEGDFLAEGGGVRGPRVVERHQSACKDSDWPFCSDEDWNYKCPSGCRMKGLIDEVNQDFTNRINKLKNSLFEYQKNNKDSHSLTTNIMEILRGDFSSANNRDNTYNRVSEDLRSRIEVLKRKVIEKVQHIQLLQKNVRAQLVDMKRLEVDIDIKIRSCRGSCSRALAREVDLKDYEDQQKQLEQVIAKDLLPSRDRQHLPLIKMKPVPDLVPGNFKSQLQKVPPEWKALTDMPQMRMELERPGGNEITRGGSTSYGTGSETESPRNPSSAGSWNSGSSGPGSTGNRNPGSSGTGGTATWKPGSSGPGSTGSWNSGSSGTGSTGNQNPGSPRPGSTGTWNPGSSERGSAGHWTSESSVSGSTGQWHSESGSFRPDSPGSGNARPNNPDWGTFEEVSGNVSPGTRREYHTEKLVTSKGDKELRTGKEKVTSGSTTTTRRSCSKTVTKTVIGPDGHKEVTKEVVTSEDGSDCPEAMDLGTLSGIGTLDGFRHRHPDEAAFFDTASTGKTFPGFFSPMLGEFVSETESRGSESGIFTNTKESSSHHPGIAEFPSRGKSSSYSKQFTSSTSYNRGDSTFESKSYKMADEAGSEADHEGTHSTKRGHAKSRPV
Chain of human fibrinogen (human) (P02675 31-491 limits assumed, chain 2 of 3, further chain): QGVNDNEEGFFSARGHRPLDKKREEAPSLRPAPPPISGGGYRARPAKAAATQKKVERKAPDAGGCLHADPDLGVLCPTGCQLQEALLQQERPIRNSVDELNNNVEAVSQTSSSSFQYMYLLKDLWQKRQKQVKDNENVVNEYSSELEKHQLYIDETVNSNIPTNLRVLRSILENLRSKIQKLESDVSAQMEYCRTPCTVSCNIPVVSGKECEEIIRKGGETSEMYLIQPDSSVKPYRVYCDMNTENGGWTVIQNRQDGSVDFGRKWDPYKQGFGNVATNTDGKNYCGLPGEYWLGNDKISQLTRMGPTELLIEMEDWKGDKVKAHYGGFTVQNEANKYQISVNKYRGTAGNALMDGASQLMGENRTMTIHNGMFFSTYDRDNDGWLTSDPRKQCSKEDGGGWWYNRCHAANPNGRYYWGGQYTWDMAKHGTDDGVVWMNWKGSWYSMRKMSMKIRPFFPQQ
Chain of human fibrinogen (human) (P02679 other isoform, or with tags, fused parts or gaps limits assumed, chain 3 of 3, further chain): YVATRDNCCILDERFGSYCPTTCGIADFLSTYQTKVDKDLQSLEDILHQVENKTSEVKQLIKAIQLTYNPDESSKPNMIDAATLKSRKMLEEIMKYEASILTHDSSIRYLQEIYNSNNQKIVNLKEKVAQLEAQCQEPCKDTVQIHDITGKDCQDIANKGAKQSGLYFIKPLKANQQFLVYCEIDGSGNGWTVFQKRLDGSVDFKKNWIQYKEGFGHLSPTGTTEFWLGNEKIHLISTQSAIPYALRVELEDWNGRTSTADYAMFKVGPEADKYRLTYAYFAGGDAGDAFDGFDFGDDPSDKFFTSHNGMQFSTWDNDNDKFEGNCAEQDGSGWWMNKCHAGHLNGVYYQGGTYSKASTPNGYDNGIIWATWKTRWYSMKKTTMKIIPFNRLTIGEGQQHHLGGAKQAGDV

Clotting activity (seconds) in human fibrinogen @ c = 3 mg/ml; HXP12 extracted from HA paste, 0.06 mg/ml; after sterilization, accelerated aging @ 40 C, 2 weeks: 3.6 s
Clotting activity (seconds) in human fibrinogen @ c = 3 mg/ml; HXP12 extracted from HA paste, 0.06 mg/ml; after sterilization, accelerated aging @ 40 C, 4 weeks: 5.4 s
Clotting activity (seconds) in human fibrinogen @ c = 3 mg/ml; HXP12 extracted from HA paste, 0.06 mg/ml; autoclaved @ 121 C: 3.3 s
Clotting activity (seconds) in human fibrinogen @ c = 3 mg/ml; HXP12 extracted from HA paste, 0.06 mg/ml; non autoclaved: 1 s
Clotting activity (seconds) in human fibrinogen; HXP12 0.05 mg/ml in saline; after sterilization, storage @ 40 C, 4 wks: 0.9 s
Clotting activity (seconds) in human fibrinogen; HXP12 0.05 mg/ml in saline; after sterilization, storage @ 40 C, 7 wks: 1.2 s
Clotting activity (seconds) in human fibrinogen; HXP12 0.05 mg/ml in saline; after sterilization, storage @ 40 C, 13 wks: 1.1 s
Clotting activity (seconds) in human fibrinogen; HXP12 0.05 mg/ml in saline; after sterilization, storage @ 40 C, 27 wks: 1.1 s
Clotting activity (seconds) in human fibrinogen; HXP12 0.05 mg/ml in saline; autoclaved @ 121 C: 1 s
Clotting activity (seconds) in human fibrinogen; HXP12 0.05 mg/ml in saline; non autoclaved: 1.1 s
Clotting activity (seconds) in human plasma; HXP12 extracted from HA paste, 0.1 mg/ml; after sterilization, accelerated aging @ 80 C, 4 hours: 2.8 s
Clotting activity (seconds) in human plasma; HXP12 extracted from HA paste, 0.1 mg/ml; after sterilization, accelerated aging @ 80 C, 16 hours: 4.8 s
Clotting activity (seconds) in human plasma; HXP12 extracted from HA paste, 0.1 mg/ml; autoclaved @ 121 C: 2.6 s
Clotting activity (seconds) in human plasma; HXP12 extracted from HA paste, 0.1 mg/ml; non autoclaved: 2 s
clotting time in human plasma, dendrimer 0.25 mg/ml, 37 C: < 1 s
B1: Peptide Dendrimer No. 12 (peptide, from a related filing, part only)
peptide: GPRPG
chain: KKKKK
modifications: not fully specified; also: five-arm peptide dendrimer, arms attached by C-terminus to branched core
